Measured values published in the nanobody polyreactivity screen of Harvey et al. (2022).

Assay: yeast display, Sf9 membrane polyspecificity reagent, FACS + sequencing; frameworks hold sequencing errors
Procedure, shortened: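 Synthetic nanobody libraries on Saccharomyces cerevisiae BJ5465 were galactose-induced for 36–48 hours, stained 1 hour at 4 °C with 10% biotinylated, detergent-solubilized Sf9 membrane reagent and enriched on streptavidin microbeads. FACS then separated cells into low and high (top ~1%) gates by anti-HA (expression) and streptavidin (reagent binding) fluorescence. Genes were colony-PCR amplified, MiSeq 2 × 250 sequenced and CDR-length filtered. A clone's polyreactivity label is that of its gate of origin.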

Sequence	polyreactivity (PSR sort gate)
QVQLVESGGGLVQAGGSLRLSCAASGGIFVGNAMGWYRQAPGKERELVAAISQRGGRTYYADSVKGRFTISRDNAKNTVYLQMNSLKPEDTAVYYCAAGYWLSTDSGYPFQYYLYDYWGQGTQVTVSS	high polyreactivity
QVQLVESGGGLFQAGGSLRLSCAASGRIFYTNVMGWYRPAPGKERELVAAISTGGGRTYYADSVKGRFTISRDYAKNTVYLQMNSLKPEDTAVYYCAADWRTKGYDSLGQGTQVTVSS	high polyreactivity
QVQLVESGGGLVQAGGSLRLSCAASGRIFTKNAMGWYRQAPGKERELVAAISWSTSRTYYADSVKGRFTISRDNAKNTVYLQMNSLKPEDTAVYYCAAVYRLRGAFSRGYWGQGTQVTVSS	high polyreactivity
QVQLVESGGGIVQAGGSLRLSCPASGSIFDTYAMGWYRPAPGKEREMVASWSGGSTYYADSVKGRFTISRDNAKNTVYLQMISLKPEDTAVDYCAKDYYVQPPGTRDDYWGQGSQVTVSS	low polyreactivity
QVQLVESGGCLVQAGGSLRLSCAASGGIFPGNAMGWYRQAPGKERELVATISYSGGSTYYADSVKGRFTISRDNAKNTVYLQMNSLKPEDTAVYYCAARGYKPTRSRRTEYGYWGQGTQVTVSS	high polyreactivity
QVQHVESGGGLVQAGGSLRLSCAASGSTFSLYAMGWSRQAPGKERELVAAIRGSGGSPYYADSVKGRFTISRDNAKNTVYLQMNTQTPEDSAVYYCAKKRYHGSNYGYDYWGQGTQVTVSS	high polyreactivity
QDQLVESGGGIVQAGVSLRLSCAANGIIFDYYAMGWYRQAPGKERELVAAINRNGGTTYYADSVKGRFTISRDNAKNTVYLQMICLKPEDTAVYYCAAVDFGWSTYYYWGQGTQVTVAS	high polyreactivity
QVQLVESGGGLVQAGVSLRLSCAASGLTFGAYAMGWYRQAPGKERELVAAINVSGGSTYYADSVKGRFTISRDNAKNTVYLQMNSLKPEDTAVYYCNAGLVLGGIFIPLYDYWGQGTQVTVSS	high polyreactivity
QVQLVESGGGLVQAGGSLRLSCAASGRILYKYAMGWYRQAPGKERELVAAISWRGTTTYYADSVKGRFTISRDNAKNTVYLQMNSLKPEDTAVYYGAIDRSYGYFSRPVSQYDYWGQGTQVTVSS	high polyreactivity
QVQLVESGGGLVQAGGSLRLSCAASGSTFPLYAMGWYRQAPGKEREMVAAITGGGGRTYYADSVKGRFTISRDNAKNTVYLQMNSLKPEDTAVYYCNAVVYLTNYWYDYWGQGTQVTVSS	low polyreactivity
QVQLLESGGGLDQAGGILRLSCASSGRTFNWYAMGWYRQAPGKEREFVAAINWSGGSTYYADSVKGRFTISRDNAKNTVYLQMNSLKPEDTAVYYCNKYPVGYRMYYWGQGTQVTVSS	low polyreactivity
QVQLVESGGGLVQAGGSLRFSCAASGFIFYRNTMGWYRQAPGKEREFVAAIRWRGGSTYYADSVKGRFTISRDNAKNTVYLQMNSLKPEDTAVYYCAADTRPGYSGFVYWGQGTQVTVSS	high polyreactivity
QVQLVESGGGLVQAGGSLRLSCAASGLTIRYYAMGWYRQAPGKERELVAAITRGGSTYYADSVKGRFTISRDNAKNTVYLQMNSLKPDDTAVYYCAAYDVRYNTYDYDYWGQGTQVTVSS	high polyreactivity
QVQLVESGGGLVQAGGSLRLSCAASGIIIGNNAMGWYRQAPGKERELVAAISRRGGSTYYADSVKGRFTISRDNAKNTVYLQMNSLKPEDTAVYYCAADIYRYNSYDYWGQGTQVTVSS	low polyreactivity
QVQLVESGGGLVQAGGSLPLSCAASGFIFPGYAMGWYRQAPGKERELVAVISSRGGSTKYADSVKGRFTISRDNANYSVYLQMNSLNPEDTAVYYCAAARAPRKYDSWGQGTQVTVSS	high polyreactivity
QVQLVESGGGLVQAGGSLRLSCAASGSILDWNAMGWYRQAPGKVRELDAAITNGVSTHYADSVKGRFTISRDNAKNTVYFQMNSLKPEETAVYYCAKAFWWRPEWWLRSARGSWGQGTQVTVSS	low polyreactivity

Sequence	polyreactivity (PSR sort gate)
QVQLVESGGGLVQAGGSLRLSFAASGSTFYVYPMGWYRQAPGKERELVAAITDSGGSTYADSVKGRFTISRDNAMNTVYLQFNSLKPEASAVYADSTFYWYYYYWGQGPQVTVSS	low polyreactivity
QDQLVESGGGLVQAGGSLRLSCAASVIIFEYYTMGWYRQAPGKERELVASITYDGDSTYYADSVKRRFTISRDNAKKTVYLQMNSQTPEDTAFYSCAADYYYVYSSYGHYYWGQGTQVTVSS	low polyreactivity
QVQLVESGGGIVQAGGSLRLSCAASGYTFRGNVMGWYRQAPGKERELVAAISRSGGSTYYADSVKGRFTISRDNAKNTVYLQMYCLKPADTAVHYCAKKPTSTYQQDSPRWSDYWGQGTQVTVSS	high polyreactivity
HVQLVESGGGLVQAGGSLRLSCAASGSTFKRNTMGWYRQAPGKERELVAAISRSGGSTYYADSVKGRFTISRDNAKNTVYLQMNSLKPEDTAVYYCNAYVSSYVGSRSYGLSPYDYWGQGTQVTVSS	high polyreactivity
QVQLVESGGGLVQAGGILRLICAAYGRILAYNSMGWYRQAPGKQRELVAGISWSGGSTYYADSVKGRFTISRDNAKNTVYLQMNSLKPEDTAVYYCAKTPYYRYAKQRYTSSHDYWGQGTQVTVSS	high polyreactivity
QVQLVESGGGLVQAGGSLRLSCADSGSTFLYYGMGWYRQAPGKERELVAGIDGTGSSTYYADSVKGRFTISRDNAKNTVYLQMNSLKPEDTAVYYCAKRYPRYRSRYYYWGQGTQVTVSS	low polyreactivity
QVQRVESGGGLVQAGGSLRLSSAASGRTSRYAMGWYRQAPGKERELVAAISRSGGSTHNADSVKGRFTISRDNAKNNVYLHMNSLKPEDTAVYSCNAQQGRYWSAKGYDYWGQGTQVTVSS	high polyreactivity
QVQLVESGGGLVQAGGSLRLSCAASGNTFSWYAMGWYRQAPWKERELVAVITSGGSTNYADSVKGRFTISRDNAKNTVYLQMNSLKTEDTAVYYFAADSYGGSKYDYWGQGTQVTVSS	low polyreactivity
QVQLVESGGGLVQAGGSLRLSCAASGFTFRAYAMGWYRQAPGKERELVAAISSGGGRTYYADSVKGRFTISRDNAKNTVYLQMNSLKPEDTAVYYCAADNYPGTRYDYWGQGTQVTVSS	high polyreactivity
QVQLVESGGGLVQAGGSLRLSCAASGRIIYTNAMGWYRQAPGKERELVAAINRSGGITYYADSVKGRFTISRDNAKNTVYLQMNSLKPEDTAVYYCAKDYSWASYNHDYWGQGTQVTVSS	low polyreactivity
QVQLVESAGGLVQAGGSLRIRCAASVSTFGVYALGWYRQAPGKERELVAAISSSTGSTYYADSVKGRFTISRDNAKNTVYLQMNSLKPEDTGVYYCAAAGYGKVRGDYWGLGTQVTVSS	low polyreactivity
QVQLVESGGGLVQAGGSLRLSCAASGGTFSYYAMGWYRQAPGKERELVAAISGNGDTTYYADSVKGRFTSSRDNAKNTVYLQMNSLKPEATAVYYCNVFVSAGEEDEYWGQGTQVTVSS	low polyreactivity
QVQLVESGGGLVQAGGSLRLSCAASGSTFRLYAMGWYRQAPGKERELVAAISSRGGTTYYADSVKGRFTISRDNAKNTVYLQMNSLKPEDTAVYYCAAPRASQYGDDYWGHGTQVTVSS	high polyreactivity
QVQLVESGGGIVQAGGSLRLSFAASGSIFEINALGWYRQAPGKERELVAAITGSGGSTHYADSVKGRFTISRDTAKNTVYLQMNSLKPEDTAVYYCARTQRYDYGYDYWGQGTQVTVSS	low polyreactivity
QVQLVESGGGLVQAGGSLRLSCAASGRIFNRNAMGWYRQPPGKERELVAAISWSGTRTYYADSVKGRFTISRDNAKNTVYLQMNSLKPEDTAVYYCAAGASLYSYYGFLPYDYWGQGTQVTVSS	high polyreactivity
